# T1: human Claudin 18.2 (hCLDN18.2) on stably-transfected HEK293 cells (human, UniProt P56856-2 1-261)
# T1 sequence (looked up): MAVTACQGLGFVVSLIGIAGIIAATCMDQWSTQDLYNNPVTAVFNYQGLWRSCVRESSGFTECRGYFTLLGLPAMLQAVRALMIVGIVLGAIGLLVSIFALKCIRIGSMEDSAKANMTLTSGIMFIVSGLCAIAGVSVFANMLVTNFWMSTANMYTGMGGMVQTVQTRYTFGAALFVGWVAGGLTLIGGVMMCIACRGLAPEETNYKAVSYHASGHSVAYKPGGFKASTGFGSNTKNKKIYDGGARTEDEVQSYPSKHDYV
# T2: Cynomolgus macaques Claudin 18 (cynoCLDN18) on stably-transfected HEK293 cells (Cynomolgus macaques, UniProt A0A2K5VVB4 1-261)
# T2 chain: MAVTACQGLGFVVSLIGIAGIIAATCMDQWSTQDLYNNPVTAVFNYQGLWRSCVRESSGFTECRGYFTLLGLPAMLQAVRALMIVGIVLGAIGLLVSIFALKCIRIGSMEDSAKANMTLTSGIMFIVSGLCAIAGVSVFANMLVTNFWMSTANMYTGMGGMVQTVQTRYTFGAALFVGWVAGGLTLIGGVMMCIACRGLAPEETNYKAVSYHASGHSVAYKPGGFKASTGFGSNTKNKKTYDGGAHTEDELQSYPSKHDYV
# B1: 31905-44AA (bispecific antibody, human IgG1, kappa, L234A L235A)
# heavy 1: not shown
# heavy 2: QVQLVQSGAEVKKPGASVKVSCKASGYIFTNYWIHWVRQAPGQGLEWMGRIYPGTGNTYYNEKFTGRVTMTRDTSTSTVYMELSSLRSEDTAVYYCAREGYGKGNSMDYWGQGTTVTVSSASTKGPSVFPLAPSSKSTSGGTAALGCLVKDYFPEPVTVSWNSGALTSGVHTFPAVLQSSGLYSLSSVVTVPSSSLGTQTYICNVNHKPSNTKVDKKVEPKSCDKTHTCPPCPAPEAAGGPSVFLFPPKPKDTLMISRTPEVTCVVVDVSHEDPEVKFNWYVDGVEVHNAKTKPREEQYNSTYRVVSVLTVLHQDWLNGKEYKCKVSNKALPAPIEKTISKAKGQPREPQVCTLPPSRDELTKNQVSLSCAVKGFYPSDIAVEWESNGQPENNYKTTPPVLDSDGSFFLVSKLTVDKSRWQQGNVFSCSVMHEALHNRYTQKSLSLSPGK
# light: not shown
# notes: Full-length 6#AA with one anti-CD3 scFv of h160C9AA on the C-terminus of one heavy chain; knob-into-hole; Fc with L234A/L235A; also called anti-CD3-CLDN18.2 bispecific antibody; CD3 monovalent antibody
# B2: 6#AA (antibody, human IgG1, kappa, L234A L235A, V domains shown)
# VH: QVQLVQSGAEVKKPGASVKVSCKASGYIFTNYWIHWVRQAPGQGLEWMGRIYPGTGNTYYNEKFTGRVTMTRDTSTSTVYMELSSLRSEDTAVYYCAREGYGKGNSMDYWGQGTTVTVSS
# VL: DIVMTQSPDSLAVSLGERVTMNCKSSQSLLNAGNQKNYLTWYQQKPGQPPKLLFYWASTRESGVPDRFSGSGSGTDFTLTISSVQAEDVAVYHCQNAYYYPYTFGGGTKLEIKR
# notes: Anti-human CLDN18.2 full-length antibody, IgG1 Fc with L234A/L235A
# B3: h160C9AA (antibody, human IgG1, lambda, L234A L235A, V domains shown)
# VH: EVKLVESGGGLVQPGGSLKLSCAASGFTFNTYAMNWVRQAPGKGLEWVARIRSKYNNYATYYADSVKDRFTISRDDAKNTLYLQMNNLRTEDTAVYYCVRHGNFGNSYVSWFAYWGQGTLVTVSS
# VL: QAVVTQEPSLTVSPGGTVTLTCRSSTGAVTTSNYANWVQQKPGQAPRGLIGGTNKRAPGTPARFSGSLLGGKAALTLSGAQPEDEAEYYCALWYSNLWVFGGGTKLTVLG
# notes: Anti-CD3 full-length antibody, Fc with L234A/L235A
# Tests used:
# human CD3 E&D protein = molecular target: T3, human CD3 E&D protein (human, UniProt P07766 23-126; P04234 22-105); assay: SPR (Biacore 8K), CD3 E&D immobilised by amino coupling, antibody as analyte, 1:1 fit
# T3 construct: Soluble CD3 epsilon and delta protein immobilised on the chip; also called Humanized CD3 E&D; humanized CD3 E&D protein
# Procedure: The affinity and kinetic properties of the bispecific antibodies to human CD3 E&D proteins were determined by surface plasmon resonance (SPR) using a Biacore 8K instrument. The human CD3 E&D protein was immobilized on the experimental channel of CMS chip by amino coupling, then the antibody to be tested was subjected to doubling dilution to serial concentrations, flowed through the surfaces of an experimental channel and a reference channel successively for binding, followed by dissociation, the binding and dissociation curve of each sample was obtained, and the results were analyzed and evaluated by Biacore Insight Evaluation software.
# The bispecific antibodies of the present disclosure were diluted to 400 nM with 1×HBS-EP+ (10 mM HEPES, pH 7.4, 150 mM NaCl, 3 mM EDTA, 0.05% P20) running buffer, then subjected to doubling dilution to 1.56 nM with this buffer, thus obtaining antibody solutions in a range of concentrations from 400 nM to 1.56 nM. At the end of each experiment, the chip was regenerated by washing with 3M MgCl₂ solution at a flow rate of 30 μL/min for 30 s to remove captured antibody together with antigen. The raw data were analyzed using Biacore Insight Evaluation Software (version 2.0.15.12933) with a 1:1 fit model and affinity and kinetic experimental data of the resulting bispecific antibodies were shown in Table 4.
# [1] = molecular target: T1, human Claudin 18.2 (hCLDN18.2) on …; assay: cell-based or functional assay
# [2] = molecular target: T1, human Claudin 18.2 (hCLDN18.2) on …; assay: FACS on HEK293-hCLDN18.2 cells
# Procedure: (§1) The binding situation of the anti-CD3-CLDN18.2 bispecific antibodies to stably-transfected HEK293 cells expressing hCLDN18.2 (HEK293-hCLDN18.2) and T lymphocytes naturally expressing hCD3 (Jurkat) were detected by using FACS.
# (§2) HEK293-hCLDN18.2 or Jurkat cells were collected and re-suspended with FACS buffer (PBS+1% BSA+0.5 mM EDTA), after adjusting the cell concentration, 1E5 cells per well were added into a 96-well plate, and then the antibody after gradient dilution was added according to the preset concentration, wherein the negative control was human IgG1AA (Negative-IgG1AA), the positive control of CLDN18.2 was antibody 6#AA, and the positive control of CD3 was antibody h160C9AA. Following incubation in a 4° C. shaking table for 2 h, the mixture was centrifugally washed twice with FACS buffer, added with fluorescently labeled anti-human IgG secondary antibody, 100 μL per well; after incubation in a 4° C. shaking table for 1 h, the mixture was centrifugally washed twice with FACS buffer, the cells were filtered to a 96-well plate, and then the prepared sample was detected on a flow cytometer; the mean fluorescence intensity (hereinafter referred to as MFI) for each concentration was calculated by software, and then the median effective concentration (hereinafter referred to as EC₅₀) and the top mean fluorescence intensity (Top MFI) were calculated by GraphPad software, and the results were shown in Table 3.
# [3] = molecular target: T2, Cynomolgus macaques Claudin 18 …; assay: FACS on HEK293-cynoCLDN18 cells
# [4] = molecular target: T4, human CD3 (hCD3) naturally expressed on Jurkat cells (human, UniProt P07766 23-207); assay: cell-based or functional assay
# [5] = molecular target: T4, human CD3 (hCD3) naturally expressed on …; assay: FACS on Jurkat cells
# Procedure: as §1, §2
# [6] = molecular target: T1, human Claudin 18.2 (hCLDN18.2) on …; assay: cell-based or functional assay; remark: listed apart in the source
# [7] = molecular target: T4, human CD3 (hCD3) naturally expressed on …; assay: FACS on Jurkat cells (natural hCD3), fluorescent anti-human IgG secondary antibody
# Procedure: as §1
# HEK293-hCLDN18.2 or Jurkat cells were collected and re-suspended with FACS buffer (PBS+1% BSA+0.5 mM EDTA), after adjusting the cell concentration, 1E5 cells per well were added into a 96-well plate, and then the antibody after gradient dilution was added according to the preset concentration, wherein the negative control was human IgG1AA (Negative-IgG1AA), the positive control of CLDN18.2 was antibody 6#AA, and the positive control of CD3 was antibody h160C9AA. […]
# T3 sequence (P07766 23-126, chain 1 of 2): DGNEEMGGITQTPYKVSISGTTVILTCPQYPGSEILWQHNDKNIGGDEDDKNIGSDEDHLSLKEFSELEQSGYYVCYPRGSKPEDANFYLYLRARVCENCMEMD
# T3 sequence (P04234 22-105, chain 2 of 2): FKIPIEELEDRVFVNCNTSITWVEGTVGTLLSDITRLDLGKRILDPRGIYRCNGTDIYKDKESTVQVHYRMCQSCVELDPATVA
# T4 sequence (P07766 23-207): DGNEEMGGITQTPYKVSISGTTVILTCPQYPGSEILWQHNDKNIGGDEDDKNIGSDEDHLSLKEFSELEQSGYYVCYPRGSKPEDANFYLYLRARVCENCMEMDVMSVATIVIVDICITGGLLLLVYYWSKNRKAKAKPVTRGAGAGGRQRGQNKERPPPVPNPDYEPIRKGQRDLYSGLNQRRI
Binder,Kd (human CD3 E&D protein),koff (human CD3 E&D protein),kon (human CD3 E&D protein),"ADCC activity, EC50 [1]","ADCC activity, Maximum lysis (%) [1]",EC50 [2],Top mean fluorescence intensity (Top MFI) [2],EC50 [3],MFI (Max) [3],"Jurkat-NFAT luciferase reporter, EC50 [4]","Jurkat-NFAT luciferase reporter, Fluorescence value (Max) [4]",EC50 [5],Top mean fluorescence intensity (Top MFI) [5],"T cell activation, CD25+CD69+ % [6]","T cell activation, EC50 [6]","TDCC activity, EC50 [6]","TDCC activity, Maximum lysis (%) [6]",binding result [7]
B1,17.9 nM,0.00365 s⁻¹,204000 M⁻¹ s⁻¹,0.532 nM,7.03%,1.18 nM,31000 MFI,0.84 nM,41800 MFI,124 nM,114000,9.3 nM,1700 MFI,33.4%,0.049 nM,0.54 nM,30%,
B2,,,,0.771 nM,6.92%,0.95 nM,18600 MFI,0.62 nM,39500 MFI,,0,,26 MFI,3.18%,,1.45 nM,16.3%,no binding (tested: about 2e-7 M (log M about -6.7))
B3,,,,,,,897 MFI,,1040 MFI,0.32 nM,220000,0.13 nM,2020 MFI,,,,,
